Biological target: HLA-A*02 (human)
Experiment: UV-exchange b2m ELISA

peptide exchange yield [%]	Binder
50 to 75	AVIKFLELL
50 to 75	TMDSVLVTV
50 to 75	VQLDSIEDLEV
50 to 75	AIQDEIRSV
20 to 49	QVIEDSTGV
50 to 75	ILLDLTDNRL
50 to 75	ILFHGVFYA
20 to 49	YTLREVDTV
50 to 75	SLPNGKPVSV
50 to 75	ILAPFSVDL
50 to 75	SLSNRLYYL
20 to 49	KLYEADFVL
50 to 75	ALQEELTEL
50 to 75	GIAGSLKTV
50 to 75	TLFGYSVVL
50 to 75	YLLPLLPAL
50 to 75	ALLERGELFV
20 to 49	SQIPAQPSV
> 75	LLFSRLCGA
50 to 75	SLFSDEFKV
> 75	LLYPEPWSV
50 to 75	KLLDPQEFTL
20 to 49	VTFKEYVTV
50 to 75	TLLQRLTEV
20 to 49	ALNPELVQA
50 to 75	SLATKIVEA
50 to 75	LLLGDSALYL
20 to 49	ALFENTPKA
50 to 75	SISDNVWEV
20 to 49	SLFPDSLIV

More lines, now with the values behind:

Binder	peptide exchange yield [%]
YLDLSHNQL	50 to 75
ALFAPLVHL	50 to 75
GLLPLLHRA	> 75
KLMPGTYTL	> 75
KLIFSVEAV	50 to 75
VLHSKFWVV	50 to 75
TLDEKVAEL	50 to 75
TLIDEQDIPLV	50 to 75
FLLATEVVTV	> 75
GLSQITNQL	50 to 75
VLIDPQWVLTA	50 to 75
ILDHEVPSL	50 to 75
SQFPLPLAV	20 to 49
NALDKVLSV	50 to 75
ALNIATHVL	50 to 75
ILAKDLFEI	> 75
FLTAINYLL	50 to 75
HLLEGSVGV	50 to 75
AIVKEIVNI	20 to 49
ALFDSLRHV	50 to 75
VLNPLITAV	50 to 75
KMVGLVVAI	50 to 75
SLADTNSLAVV	50 to 75

Binder	peptide exchange yield [%]
YLLDPSITL	50 to 75
FLLPFSTVYL	50 to 75
ALMAMLVYV	20 to 49
FLHDEKEGIYI	50 to 75
LLDSVSRL	< 20
AVGPVHNSV	20 to 49
YTLDIPVLFGV	> 75
FLVDGSYSI	50 to 75
FLAVGLVDV	50 to 75
FLGPRIIGL	50 to 75
GIVAHIQEV	50 to 75
ALSPSYLTV	50 to 75
TVFTDHMLTV	20 to 49
AMIEEVFEA	20 to 49
YIKTELISV	50 to 75
KLEENGDLYL	> 75
SLFETAWEA	50 to 75
SVVPDVRSV	20 to 49
RLMEENWNA	50 to 75
TVVTRLDEI	20 to 49
FVDPNTQEKV	20 to 49
TITETTVEV	50 to 75
